The values below come from patent US8058034B2, “Mutated D-aminotransferase and method for producing optically active glutamic acid derivatives using the same” (Ajinomoto Co., Inc., priority 2002, dated 2011).

Data set [1] can be described thus: Stability of IHOG in amination reaction solution with no microbial cell addition. It is filed as physicochemical. As to conditions: 300 mM 4R,S-IHOG, pH 8.3, 37° C., no cells. The method, then:
Another reason therefor would be instability of IHOG, the material for producing monatin, in a certain pH. In order to test stability of IHOG in the amination reaction of IHOG, the present inventors measured a change of IHOG concentration with time in an amination reaction solution of IHOG with no microbial cell addition. The reaction was performed by shaking a test tube containing 1 ml of reaction solution composed of 100 mM potassium phosphate buffer (pH 8.3), 300 mM 4R,S-IHOG, 600 mM DL-Ala and 1 mM pyridoxal-5′-phosphate at 37° C. for 40 hours. As a result, a residual ratio of 4R,S-IHOG was decreased to 81% after 16 hours, 70% after 24 hours and 57% after 40 hours, respectively. […] It is presumed that this phenomenon is due to a decomposition reaction where IHOG is decomposed into 3-indole-pyruvic acid and pyruvic acid and a cyclization reaction of IHOG, to consume IHOG in the reaction solution before being converted to monatin. That is, the reaction catalyzed by the D-aminotransferase derived from the genus Bacillus or Paenibacillus is not sufficiently fast, and a part of IHOG becomes unavailable for the amination due to the decomposition and the cyclization before the amination. This is thought to be one reason why (2R,4R) monatin can not be efficiently produced.

A short description of data set [2]: IHOG amination with washed cells of BSDAT-expressing E. coli (Example 6). It is filed as biochemical. The conditions noted are these: 50 mM IHOG, 200 mM D-alanine, pH 7.6, 30° C., 18 hours, cells 5% (w/v). The method, then: E. coli transformants containing pUCBSDAT were cultivated in the LB medium (1 g/dL of bacto tryptone, 0.5 g/dL of yeast extract and 1 g/dL of NaCl) containing 0.1 mg/mL of ampicillin at 37° C. for 16 hours. Subsequently, 1 mL of thus obtained broth was added to a 500 mL Sakaguchi flask in which contains 50 mL of the LB medium, and main cultivation was performed at 37° C. After 2.5 hours of cultivation, isopropyl-1-thio-β-D-galactopyranoside (IPTG) was added thereto at a final concentration of 1 mM, and the cultivation was performed for additional 4 hours. Cells were harvested from the cultured medium and washed to prepare the cells of BSDAT-expressing E. coli.
The microbial cells prepared in the above (2) were suspended at 5% (w/v) in 1 mL of a reaction liquid composed of 100 mM Tris-HCl (pH 7.6), 50 mM IHOG, 200 mM D-alanine, 1 mM pyridoxal-5′-phosphate and 0.5% (v/v) toluene. One ml of the suspension was then transferred to a 10 mL test tube, and incubated with shaking at 30° C. for 18 hours. After the incubation, the amount of 2R-monatin thus produced was determined. As a result, 13.8 mM (2R,4R)-monatin and 12.7 mM (2R,4S)-monatin were produced from IHOG.

Data set [3] is described as follows: IHOG amination reaction with mutated BSDAT-expressing E. coli (Example 8). In kind it is biochemical. As to conditions: 50 mM 4R,S-IHOG, 16 hours. How it is done:
E. coli transformants containing each plasmid with mutated BSDAT gene or pUCBSDAT were inoculated to 3 mL of LB medium (1 g/dL of bacto tryptone, 0.5 g/dL of yeast extract and 1 g/dL of NaCl) containing 0.1 mg/mL of ampicillin and 0.1 mM isopropyl-1-thio-β-D-galactopyranoside (IPTG). The medium was then cultured with shaking at 37° C. for 16 hours. Cells were collected from the cultured medium and washed to prepare the BSDAT-expressing E. coli. Expression of each mutated BSDAT was confirmed by SDS-PAGE. The cells harvested from 250 μL of the cultured medium were resuspended in 500 μL of an SDS-PAGE sample buffer and boiled for 10 minutes for cell lysis and denaturation, and 5 to 10 μL of the supernatant obtained by centrifugation (10,000×g, 10 min.) was subjected to SDS-PAGE.
Using a series of mutated BSDAT-expressing E. coli strains prepared in Example 7, 2R-monatin was produced from 4R,S-IHOG. The microbial cells prepared by centrifuging 400 μL of the cultured medium were suspended in the reaction solution having the following composition.
(§1) Reaction solution of IHOG: 100 mM Tris-HCl (pH 8.0), 50 mM 4R,S-IHOG, 200 mM D-alanine, 1 mM pyridoxal-5′-phosphate and 0.5% (v/v) toluene
The suspension was incubated at 30° C. for 16 hours, and then the amount of 2R-monatin thus produced was analyzed.

Data set [4] is described as follows: DAT activity of mutated BMDAT: transamination from D-alanine to α-ketoglutaric acid, coupled lactate dehydrogenase assay. It is filed as biochemical, E. coli. As to conditions: 10 mM D-alanine, 10 mM α-ketoglutaric acid, pH 8.0, 30° C., cell sonicate supernatant. The method, then:
E. coli transformants containing each plasmid with mutated BMDAT gene or pUCBMDAT were inoculated to 3 mL of casamino acid medium (0.5 g/dL of ammonium sulfate, 0.14 g/dL of KH2PO4, 0.23 g/dL of citrate 2Na.3H2O, 0.1 g/dL of MgSO4.7H2O, 2 mg/dl of FeSO4, 2 mg/dl of MnSO4, 2 mg/dL of pyridoxine hydrochloride, 0.1 mg/dL of thiamine, 1 g/dL of casamino acid, 0.3 g/dL of glycerol, pH 7.5) containing 0.1 mg/mL of ampicillin and 0.1 mM IPTG. The medium was then cultured with shaking at 37° C. for 16 hours. Cells were collected from 1 mL of the cultured medium, washed, suspended in 1 mL of 20 mM Tris-HCl (pH 7.6), and ultrasonically disrupted at 4° C. for 30 min. The sonicates were centrifuged at 15,000 rpm for 5 minutes, and the supernatant thereof was used as an enzyme catalyst. For the measurement of the D-aminotransferase activity (hereinbelow referred to as DAT activity), the transamination activity with D-alanine as the amino donor to α-ketoglutaric acid was enzymatically measured by analyzing pyruvic acid produced from D-alanine as the reaction proceeds.
Reaction conditions: 100 mM Tris-HCl (pH 8.0), 0.2 mM NADH, 0.1 mM pyridoxal-5′-phosphate, 5 U/mL lactate dehydrogenase, 10 mM D-alanine, 10 mM α-ketoglutaric acid, 30° C. A reduction of absorbance at 340 nm was measured.

A short description of data set [5]: IHOG amination reaction with mutated BMDAT-expressing E. coli (Example 10). In kind it is biochemical. The conditions noted are these: 100 mM 4R,S-IHOG, 16 hours. The method, then: (§2) Using a series of mutated BMDAT-expressing E. coli strains prepared in Example 9, 2R-monatin was produced from 4R,S-IHOG, and 2R-PHG was produced from 4R,S-PHOG. The microbial cells prepared by centrifuging 400 μL of the cultured medium were suspended in a reaction solution having the following composition.
Reaction solution of IHOG: 100 mM Tris-HCl (pH 8.0), 100 mM 4R,S-IHOG, 400 mM D-alanine, 1 mM pyridoxal-5′-phosphate and 0.5% (v/v) toluene
(§3) The suspension was incubated at 30° C. for 16 hours, and then the amount of 2R-monatin and 2R-PHG thus produced were analyzed.

The nature of data set [6]: Amination reaction of IHOG with mutated BMDAT-expressing E. coli (Example 5). It is filed as biochemical. The conditions noted are these: 50 mM 4R,S-IHOG, 16 hours. How it is done:
(§4) E. coli transformants containing each plasmid with mutated BMDAT gene or pUCBMDAT were inoculated to 3 mL of LB medium (1 g/dL of bacto tryptone, 0.5 g/dL of yeast extract and 1 g/dL of NaCl) containing 0.1 mg/mL of ampicillin and 0.1 mM isopropyl-1-thio-β-D-galactopyranoside (IPTG). The medium was then cultured with shaking at 37° C. for 16 hours. Cells were harvested from the cultured medium and washed Expression of each mutated BMDAT was confirmed with SDS-PAGE. Cells harvested form 250 μL of the cultured broth were resuspended in 500 μL of an SDS-PAGE sample buffer and boiled for 10 minutes for cell lysis and denaturation. 5 to 10 μL of the supernatant obtained by centrifugation (10,000×g, 10 min.) was subjected to SDS-PAGE.
(§5) Using a series of mutated BMDAT-expressing E. coli strains prepared in Example 4 as a catalyst, 2R-monatin was produced from 4R,S-IHOG, and 2R-PHG was produced from 4R,S-PHOG. The microbial cells collected by centrifuging 400 μL of the cultured medium were suspended in a reaction solution having the following composition.
as §1
(§6) The suspension was incubated at 30° C. for 16 hours, and then the amount of 2R-monatin and 2R-PHG thus produced were determined.

Data set [7] in a line: PHOG amination reaction with mutated BMDAT-expressing E. coli (Example 10). In kind it is biochemical. The conditions noted are these: 100 mM 4R,S-PHOG, 16 hours. How it is done: as §2
Reaction solution of PHOG: 100 mM Tris-HCl (pH 8.0), 100 mM 4R,S-PHOG, 400 mM D-alanine, 1 mM pyridoxal-5′-phosphate and 0.5% (v/v) toluene
as §3

Data set [8] in a line: IHOG amination with washed cells of BMDAT-expressing E. coli (Example 3). It is filed as biochemical. The conditions noted are these: 50 mM IHOG, 200 mM D-alanine, pH 8.0, 33° C., 16 hours, cells 2% (w/v). How it is done:
(§7) E. coli transformants with pUCBMDAT were inoculated to 3 mL of LB medium (1 g/dL of bacto tryptone, 0.5 g/dL of yeast extract and 1 g/dL of NaCl) containing 0.1 mg/mL of ampicillin and 0.1 mM isopropyl-1-thio-β-D-galactopyranoside (IPTG). The medium was then cultured with shaking at 37° C. for 16 hours. Cells were collected from the cultured medium and washed to prepare cells of the BMDAT-expressing E. coli.
The microbial cells prepared in (1) above were suspended at 2% (w/v) in 1 mL of a reaction liquid composed of 100 mM Tris-HCl (pH 8.0), 50 mM IHOG, 200 mM D-alanine, 1 mM pyridoxal-5′-phosphate and 0.5% (v/v) toluene. The suspension was then incubated with shaking at 33° C. for 16 hours, and the amount of 2R-monatin thus produced was determined. As a result, 16.4 mM of (2R,4S)-monatin and 17.0 mM of (2R,4R)-monatin were produced.

Data set [9] can be described thus: PHOG amination with washed cells of BMDAT-expressing E. coli (Example 3). In kind it is biochemical. The conditions noted are these: 50 mM PHOG, 200 mM D-alanine, pH 8.0. How it is done: as §7
The reaction was also performed in a reaction liquid composed of 100 mM Tris-HCl (pH 8.0), 50 mM PHOG, 200 mM D-alanine, 1 mM pyridoxal-5′-phosphate and 0.5% (v/v) toluene. The amount of 2R-PHG thus produced after the incubation was determined. As a result, 17.1 mM of (2R,4S)-PHG and 19.2 mM of (2R,4R)-PHG were produced.

Data set [10] is described as follows: Amination reaction of PHOG with mutated BMDAT-expressing E. coli (Example 5). The conditions noted are these: 50 mM 4R,S-PHOG, 16 hours. It is filed as biochemical. How it is done: as §4, §5
Reaction solution of PHOG: 100 mM Tris-HCl (pH 8.0), 50 mM 4R,S-PHOG, 200 mM D-alanine, 1 mM pyridoxal-5′-phosphate and 0.5% (v/v) toluene
as §6

[11] abbreviates: 200 mM D-alanine, pH 8.0, 30° C.
Where [12] appears, read: 400 mM D-alanine, pH 8.0, 30° C.

`O=C(O)C(=O)CC(O)(Cc1c[nH]c2ccccc12)C(=O)O` (racemic) [4R,S-IHOG, 4-(indol-3-ylmethyl)-4-hydroxy-2-oxoglutaric acid]: the “residual ratio of 4R,S-IHOG” value in data set [1] (after 16 hours) turned out to be 81%; in data set [1] (after 24 hours), 70%.

B1: PUCBSDAT: wild-type D-transaminase derived from Bacillus sphaericus ATCC 10208 (SEQ ID NO:4), expressed in E. coli (protein, listed as Bacillus sphaericus)
chain: MAYSLWNDQIVEEGSITISPEDRGYQFGDGIYEVIKVYNGHMFTAQEHIDRFYASAEKIRLVIPYTKDVLHKLLHDLIEKNNLNTGHVYFQITRGTTSRNHIFPDASVPAVLTGNVKTGERSIENFEKGVKATLVEDVRWLRCDIKSLNLLGAVLAKQEASEKGCYEAILHRGDIITECSSANVYGIKDGKLYTHPANNYILNGITRQVILKCAAEINLPVIEEPMTKGDLLTMDEIIVSSVSSEVTPVIDVDGQQIGAGVPGEWTRKLQKAFEAKLPISINA
For the molecule B1, in data set [2], the “(2R,4R)-monatin produced” value turned out to be 13.8 mM and the “(2R,4S)-monatin produced” value was 12.7 mM. In data set [3] (setting [11]), the “2R,4R-monatin” value was determined as 13.8 mM and the “2R,4S-monatin” value is given as 12.7 mM. Further, the 4R selectivity in data set [3] (30° C.) amounted to 52%.

B2: pUCBMDAT: wild-type D-aminotransferase derived from Bacillus macerans AJ1617 (SEQ ID NO:2), expressed in E. coli (protein)
chain: MAYSLWNDQIVEEGSIAISPEDRGYQFGDGIYEVIKVYNGNMFTAQEHIDRFYASAEKIRLVIPYTKDVLHKLLHELIEKNNLETGHVYFQITRGANSRNHVFPDASIPAVLTGNVKAGERAYENFEKGVKATFVEDIRWLRCDIKSLNLLGAVLAKQEAAEKGCYEAILHRGDIVTECSSANVYGIKDGKLYTHPANNFILNGITRQVILKCAEEINLPVIEEPMTKADLLTMDEIIVSSVSSEVTPVIDVDGNQIGAGVPGEWTRQLQQSFEAKLPLSMNTK
modifications: Bacillus macerans
In [4], B2 showed a DAT activity of 6.3 U/mg. Also, in data set [5] (setting [12]), the “2R,4R-monatin” value came to 19.1 mM and the “2R,4S-monatin” value came out at 18.3 mM. In data set [5] (30° C.), this molecule came in with a 4R selectivity of 51%. Further, in [6] (setting [11]), the “2R,4R-monatin” value was 17.0 mM and the “2R,4S-monatin” value is on record as 16.4 mM. In addition, the “4R selectivity (ratio of (2R,4R) isomer out of total 2R-monatin)” value in data set [6] (30° C.) turned out to be 51%. Besides, in data set [7] (setting [12]), the “2R,4R-PHG” value was found to be 34.2 mM and the “2R,4S-PHG” value amounted to 34.9 mM. The molecule also registered a 4R selectivity in data set [7] (30° C.) of 49%. In data set [8], the “(2R,4R)-monatin produced” value is listed as 17.0 mM and the “(2R,4S)-monatin produced” value amounted to 16.4 mM. Further, in data set [9], the “(2R,4R)-PHG produced” value worked out at 19.2 mM and the “(2R,4S)-PHG produced” value came out at 17.1 mM. Also, in [10] (setting [11]), the “2R,4R-PHG” value is 19.2 mM and the “2R,4S-PHG” value is on record as 17.1 mM. In addition, the “4R selectivity (ratio of (2R,4R) isomer out of total 2R-PHG)” value in data set [10] (30° C.) is 53%.
